Results taken from US20150315248.

Molecular target: gelatin substrate

B1: Dif153 (CD2830, hypothetical protein, zinc metallopeptidase), recombinant (protein)
chain: DSTTIQQNKDTLSQIVVFPTGNYDKNEANAMVNRLANIDGKYLNALKQNNLKIKLLSGKLTDEKEYAYLKGVVPKGWEGTGKTWDDVPGLGGSTVALRIGFSNKGKGHDAINLELHETAHAIDHIVLNDISKSAQFKQIFAKEGRSLGNVNYLGVYPEEFFAESFAYYYLNQDTNSKLKSACPQTYSFLQNLAK
B1 was tested, and the “fluorimetric analysis of gelatin cleavage” value was “the recombinant protein has a weak gelatinase/collagenase activity in the presence of zinc, but not in the presence of nickel and copper or in the apo form”.
